Assay [1] deals with T1, human SIRPα variant 1 (human, UniProt P78324 31-504).
T1 construct: full length ORF on transfected CHO-K1 or HEK293 cells; entry includes the signal peptide; also called hSIRPαV1; SIRPαV1
The assay can be described thus: flow cytometry, blockade of DyLight488-hCD47/Fc binding to U-937 cells. The protocol:
(§1) hCD47 blockade for the KWAR23, clone 18D5, and hSIRPα.40A antibodies was assessed by flow cytometry. For this purpose, THP-1 (ATCC TIB-202) and U-937 (ATCC CRL-1593.2) monocyte cell lines were used as the source of hSIRPα in the assay. THP-1 and U-937 cells were seeded in 96-well round bottomed tissue culture plates and incubated for 45 minutes with FcR Blocking Reagent (Miltenyi Biotec) and indicated anti-hSIRPα antibodies (20 μg/mL and dilutions thereof) in PBS/1% BSA at 4° C. […] After this labeling procedure, cells were washed two times, resuspended in PBS/1% BSA containing 0.1 μg/mL DAPI (BioLegend), and analysed by flow cytometry on the FACSVerse (BD Biosciences). Data were processed and analysed with FlowJo V10 software (FlowJo, LLC) and plotted using GraphPad Prism 6 (GraphPad Software, Inc.). Binding of recombinant hCD47 fused to an Fc domain of human IgG1 was monitored in the presence of increasing amounts of the anti-hSIRPα antibodies. […] IC50 values represent the concentration at which half of the inhibition is observed.

The target in assay [2] is T2, human SIRPα variant 2 (human, UniProt P78324 31-504).
T2 construct: full length ORF on transfected CHO-K1 cells; also called hSIRPαV2; SIRPαV2
The assay can be described thus: flow cytometry, blockade of DyLight488-hCD47/Fc binding to THP-1 cells. The protocol: as §1
(In general: Flow cytometry measures light scatter and fluorescence of single cells or particles in a stream.)

The next assay concerns the target T3, hSIRPαV5 (NA18502_V5) (human, UniProt P78324 31-504).
T3 construct: also called human SIRPαV5
As to the kind of experiment: CELISA, CHO-K1 transfectants. Here is the method: (§2) The binding specificity of antibodies hSIRPα.40A and hSIRPα.50A to hSIRPα were compared in a CELISA format. In short, CHO-K1 cells were transiently transfected with hSIRPαV1, hSIRPαV2, hSIRPβ1, hSIRPβL, and hSIRPγ cDNAs. Subsequently, hSIRPα binding was assessed by CELISA using CHO-K1.hSIRPαV1, CHO-K1.hSIRPαV2, CHO-K1.hSIRPβ1, CHO-K1.hSIRPβL, and CHO-K1.hSIRPγ cells. Detection of bound antibody was done with goat-anti-mouse IgG-HRP (Southern Biotech).
(§3) In addition, the specificity of hSIRPα.40A for all known of hSIRPα alleles (allelic variants as described by Takenaka et al., Nat Immunol. 8:1313-1323 (2007) was further investigated by CELISA using the same strategy as above. To this end, hSIRPα.40A binding was assessed using CHO-K1 cells that were transiently transfected with cDNAs encoding full length hSIRPαV1, hSIRPαV2, hSIRPαV3 (NA07056_V3) (SEQ ID NO: 44), hSIRPαV4 (NA11832_V4) (SEQ ID NO: 46), hSIRPαV5 (NA18502_V5) (SEQ ID NO: 48), hSIRPαV6 (NA18507_V6) (SEQ ID NO: 50), hSIRPαV8 (NA18570_V8) (SEQ ID NO: 52), and hSIRPαV9 (NA18943_V9) (SEQ ID NO: 54).

Another assay has as its target T4, hSIRPαV4 (NA11832_V4) (human, UniProt P78324 31-504).
T4 construct: also called human SIRPαV4
T4 chain: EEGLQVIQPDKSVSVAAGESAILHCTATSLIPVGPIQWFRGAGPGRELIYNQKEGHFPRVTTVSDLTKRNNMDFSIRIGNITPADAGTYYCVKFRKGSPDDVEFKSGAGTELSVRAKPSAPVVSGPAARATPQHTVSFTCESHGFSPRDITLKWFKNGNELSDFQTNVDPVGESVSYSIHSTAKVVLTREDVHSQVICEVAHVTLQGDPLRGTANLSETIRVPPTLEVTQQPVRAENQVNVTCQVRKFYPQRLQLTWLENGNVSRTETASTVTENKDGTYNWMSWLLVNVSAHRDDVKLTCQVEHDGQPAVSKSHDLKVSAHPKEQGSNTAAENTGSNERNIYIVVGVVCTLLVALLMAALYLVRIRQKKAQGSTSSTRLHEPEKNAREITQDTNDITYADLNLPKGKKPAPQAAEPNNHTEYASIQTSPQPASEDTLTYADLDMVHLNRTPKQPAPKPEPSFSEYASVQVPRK
As to the kind of experiment: CELISA, CHO-K1 transfectants. The protocol: as §2, §3

In a further assay the target is T5, hSIRPαV8 (NA18570_V8) (human, UniProt P78324 31-504).
T5 construct: also called human SIRPαV8
As to the kind of experiment: CELISA, CHO-K1 transfectants. The protocol:
as §2, §3

Assay [3] concerns the target T1, human SIRPα variant 1. The assay can be described thus: CELISA, CHO-K1 transfectants. Here is the method: as §2, §3
The next assay addresses T6, hSIRPαV3 (NA07056_V3) (human, UniProt P78324 31-504).
T6 construct: also called human SIRPαV3
The assay can be described thus: CELISA, CHO-K1 transfectants. The protocol:
as §2, §3

A further assay concerns the target T7, hSIRPαV9 (NA18943_V9) (human, UniProt P78324 31-504).
T7 construct: also called human SIRPαV9
As to the kind of experiment: CELISA, CHO-K1 transfectants. Here is the method:
as §2, §3

The target in assay [4] is T2, human SIRPα variant 2. As to the kind of experiment: CELISA, CHO-K1 transfectants; average of two experiments. The protocol: as §2
In assay [5] the target is T1, human SIRPα variant 1. Described as above. Here is the method: as §2
Target sequence in this assay (P78324 31-504 limits assumed, change not shown): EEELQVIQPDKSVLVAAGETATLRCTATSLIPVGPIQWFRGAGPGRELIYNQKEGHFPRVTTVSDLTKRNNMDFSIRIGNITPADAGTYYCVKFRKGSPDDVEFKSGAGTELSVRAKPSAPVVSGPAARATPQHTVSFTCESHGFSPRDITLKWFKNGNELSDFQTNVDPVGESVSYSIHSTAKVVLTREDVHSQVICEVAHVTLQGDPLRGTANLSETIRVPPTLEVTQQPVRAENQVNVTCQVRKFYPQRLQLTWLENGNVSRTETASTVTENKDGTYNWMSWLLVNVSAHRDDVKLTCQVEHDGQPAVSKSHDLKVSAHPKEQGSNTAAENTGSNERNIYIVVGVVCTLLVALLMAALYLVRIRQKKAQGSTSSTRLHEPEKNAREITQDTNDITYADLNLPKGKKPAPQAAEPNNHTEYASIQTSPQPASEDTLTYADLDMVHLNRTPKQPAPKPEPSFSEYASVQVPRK
For a further assay, the target named is T8, human SIRPγ (human, UniProt Q9P1W8 29-387).
T8 construct: on transfected CHO-K1 cells; also called hSIRPγ
The description is as above. The protocol: as §2

T2 sequence (P78324 other isoform, or with tags, fused parts or gaps mutant limits assumed): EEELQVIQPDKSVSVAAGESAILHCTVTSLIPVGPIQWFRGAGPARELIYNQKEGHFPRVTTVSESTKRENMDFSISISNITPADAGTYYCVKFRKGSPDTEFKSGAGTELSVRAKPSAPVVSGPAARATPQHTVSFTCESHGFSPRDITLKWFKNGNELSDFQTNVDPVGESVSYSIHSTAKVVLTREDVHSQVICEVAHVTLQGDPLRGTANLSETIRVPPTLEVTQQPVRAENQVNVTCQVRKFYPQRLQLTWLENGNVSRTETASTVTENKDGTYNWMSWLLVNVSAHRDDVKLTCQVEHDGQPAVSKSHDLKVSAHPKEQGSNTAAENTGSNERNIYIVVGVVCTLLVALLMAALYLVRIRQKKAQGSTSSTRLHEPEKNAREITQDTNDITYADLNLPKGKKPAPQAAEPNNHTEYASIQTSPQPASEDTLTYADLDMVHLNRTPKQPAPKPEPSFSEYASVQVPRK
T8 sequence (Q9P1W8 29-387 limits assumed): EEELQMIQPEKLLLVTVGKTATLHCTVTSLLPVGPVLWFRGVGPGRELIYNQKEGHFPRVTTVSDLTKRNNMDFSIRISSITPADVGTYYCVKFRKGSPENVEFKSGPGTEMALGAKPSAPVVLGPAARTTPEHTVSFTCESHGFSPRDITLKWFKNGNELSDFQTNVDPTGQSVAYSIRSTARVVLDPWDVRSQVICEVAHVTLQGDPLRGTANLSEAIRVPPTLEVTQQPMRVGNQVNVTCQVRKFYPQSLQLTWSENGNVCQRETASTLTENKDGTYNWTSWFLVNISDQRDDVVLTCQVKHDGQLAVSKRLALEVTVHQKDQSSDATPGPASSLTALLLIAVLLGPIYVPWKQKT

B1: KWAR23 (antibody, V domains shown)
VH: EVQLQQSGAELVKPGASVKLSCTASGFNIKDYYIHWVQQRTEQGLEWIGRIDPEDGETKYAPKFQDKATITADTSSNTAYLHLSSLTSEDTAVYYCARWGAYWGQGTLVTVSS
VL: QIVLTQSPAIMSASPGEKVTLTCSASSSVSSSYLYWYQQKPGSSPKLWIYSTSNLASGVPARFSGSGSGTSYSLTISSMEAEDAASYFCHQWSSYPRTFGAGTKLELK
Broadly, the IC50 is the concentration needed to halve the response being measured. Regarding B1, the IC50 in the assay with human SIRPα variant 1 [1] came to 0.284 nM; with human SIRPα variant 2 [2], 0.132 nM.

B2: hSIRPα.40A (antibody, mouse IgG1, kappa, V domains shown)
VH: EVQFQQSGTVLARPGTSVKMSCKASGSTFTSYWMHWVKQGPGQGLQWIGAIYPVNNDTTYNQKFKGKAELTVVTSTSTAYMEVSSLTNEDSAVYYCTRSFYYSLDAAWFVYWGQGTLVTVSA
VL: DIQMTQSPSSLSASLGERVSLTCRASQDIGSRLNWLQQEPDGTIKRLIYATSSLDSGVPKRFSGSRSGSDYSLTISGLESEDFVDYYCLQYASSPFTFGGGTKLEINR
notes: mouse antibody, full chains without signal peptide; also called mouse hSIRPα.40A
Usually EC50 stands for the concentration needed to bring the measured effect to its halfway point. As to B2, the EC50 with hSIRPαV5 (NA18502_V5) amounted to 0.115 nM; in the assay with hSIRPαV4 (NA11832_V4) it was 0.1 nM; with hSIRPαV8 (NA18570_V8), 0.089 nM; with human SIRPα variant 1 [3], 0.134 nM; with hSIRPαV3 (NA07056_V3), 0.107 nM; with hSIRPαV9 (NA18943_V9), 0.115 nM. Further, the figures for the EC50 with human SIRPα variant 2 [4], with human SIRPα variant 1 [5] and in the assay with human SIRPγ were 0.088 nM, 0.109 nM and 0.099 nM, respectively. For the same molecule, the IC50 with human SIRPα variant 1 [1] came to 1.42 nM; with human SIRPα variant 2 [2], 0.548 nM.

B3: hSIRPα.50A (antibody, V domains shown)
VH: QVQLQQSGPELVKPGASVRISCKASGFTFTNYYIHWVKQRPGQGLEWIGWIYPGNVNTKYNEKFKAKATLTADKSSTTAYMQLSSLASEDSAVYFCARPTIIATDFDVWGAGTTVTVSS
VL: DIVMTQSHKFMSTSVGDRVNITCKASQGVGTAVGWYQQKPGQSPRLLIYWASTRHTGVPDRFTGSGSGTDFSLAISNVQSEDLADYFCQQYSTYPFTFGGGTNLEIK
notes: light chain constant domain not tied; also called mouse hSIRPα.50A; hSIRPα.50A.mIgG1
With B3, the EC50 with hSIRPαV5 (NA18502_V5) came out at 1.26 nM; in the assay with hSIRPαV4 (NA11832_V4) it was 1.3 nM; with hSIRPαV8 (NA18570_V8), 1.51 nM; with human SIRPα variant 1 [3] it was 1.69 nM; with hSIRPαV3 (NA07056_V3), 1.77 nM; in the assay with hSIRPαV9 (NA18943_V9), 1.37 nM. Moreover, the EC50 amounted to 1.16 nM with human SIRPα variant 2 [4], 1.43 nM with human SIRPα variant 1 [5] and 1.99 nM in the assay with human SIRPγ.
